Laboratory results reported in US20110165145A1 (published 2011).

How the values were obtained:
[1] = biological target: T1, insulin-like growth factor I (IGF-I) (UniProt P05019 49-118); test: cell-based or functional assay
[2] = biological target: T2, insulin-like growth factor II (IGF-II), amino acids 1-67 (human, UniProt P01344 25-91); test: SPR, compared with DX-2647
T2 construct: recombinant; also called IGF-II (67aa); IGF2

[3] = biological target: T2, insulin-like growth factor II (IGF-II), …; test: cell-based or functional assay
[4] = biological target: T3, IGF-IIE (amino acids 1-104 of pro-IGF-II) (human, UniProt P01344 25-128); test: cell-based or functional assay
[5] = biological target: T2, insulin-like growth factor II (IGF-II), …; test: SPR (Flexchip), Fab, 1st of duplicate
[6] = biological target: T3, IGF-IIE (amino acids 1-104 of …); test: SPR (Flexchip), Fab, 1st of duplicate
[7] = biological target: T2, insulin-like growth factor II (IGF-II), …; test: SPR (Flexchip), Fab, 2nd of duplicate
[8] = biological target: T3, IGF-IIE (amino acids 1-104 of …); test: SPR (Flexchip), Fab, 2nd of duplicate
[9] = biological target: T2, insulin-like growth factor II (IGF-II), …; test: SPR (value equals that of Table 6, there under IgGs); Fab, not IgG
[10] = biological target: T2, insulin-like growth factor II (IGF-II), …; test: competition SPR (BIACORE T100), affinity in solution, free ligand read on huIR-A ECD; measurement 1
Description: (§1) Competition SPR (BIACORE®) was performed under conditions of partially mass-transport limited conditions according to previously described methodology (Nieba et al., 1996). Approximately 16,700 relative response units (RU) of huIR-A (-exon11) ectodomain was coupled by standard amine chemistry to a BIACORE® CM5 chip sensor. Uncoated flow-cell surface was used as a reference. […] Regeneration of the surface was achieved by injection of 30 ul NaCltrate/NaCl pH 4.5. […] These Req estimates were subsequently plotted against total concentrations of Fab used and the resulting inhibition curve was utilised to calculate dissociation constant (KD).

[11] = biological target: T3, IGF-IIE (amino acids 1-104 of …); test: as above
Description: as §1

[12] = biological target: T2, insulin-like growth factor II (IGF-II), …; test: competition SPR (BIACORE T100), affinity in solution, free ligand read on huIR-A ECD; measurement 2
Description: as §1

[13] = biological target: T3, IGF-IIE (amino acids 1-104 of …); test: as above
Description: as §1

[14] = biological target: T1, insulin-like growth factor I (IGF-I); test: SPR
[15] = biological target: T2, insulin-like growth factor II (IGF-II), …; test: SPR, captured IgG, 1:1 binding model
[16] = biological target: T3, IGF-IIE (amino acids 1-104 of …); test: SPR, captured IgG, 1:1 binding model
[17] = biological target: T1, insulin-like growth factor I (IGF-I); test: SPR, captured IgG, 1:1 binding model
[18] = biological target: T2, insulin-like growth factor II (IGF-II), …; test: SPR, IgG captured on anti-human Fc chip, ligand as analyte
IGFBP-1 = biological target: T4, IGFBP-1 (UniProt P08833 26-259); test: SPR: DX-2647 captured through its Fc, IGFBP-1 alone injected; concentration not on the sheet
T4 sequence (looked up): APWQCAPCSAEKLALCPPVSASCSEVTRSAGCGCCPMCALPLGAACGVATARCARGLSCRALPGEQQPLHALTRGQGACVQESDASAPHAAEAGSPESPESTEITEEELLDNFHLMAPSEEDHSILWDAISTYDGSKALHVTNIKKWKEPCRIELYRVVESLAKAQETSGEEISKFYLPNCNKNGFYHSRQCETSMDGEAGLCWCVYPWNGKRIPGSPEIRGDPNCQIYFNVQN

[19] = biological target: pre-formed complex of IGF-II and IGFBP-1 (human, UniProt P08833 26-259); test: SPR: DX-2647 captured through its Fc, pre-formed IGF-II/IGFBP-1 complex injected; concentration not on the sheet

T3 sequence (P01344 25-128): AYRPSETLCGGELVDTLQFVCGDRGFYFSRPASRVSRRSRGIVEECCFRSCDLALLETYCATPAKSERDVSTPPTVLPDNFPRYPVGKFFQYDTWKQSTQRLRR
T2 sequence (P01344 25-91): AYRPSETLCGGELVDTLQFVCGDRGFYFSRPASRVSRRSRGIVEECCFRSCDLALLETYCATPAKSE
T1 sequence (P05019 49-118 limits assumed): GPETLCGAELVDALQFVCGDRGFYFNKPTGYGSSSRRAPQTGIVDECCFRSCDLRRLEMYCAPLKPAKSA

B1: M0064-F02 Fab (Fab, V domains shown)
VH: EVQLLESGGGLVQPGGSLRLSCAASGFTFSNYIMWWVRQAPGKGLEWVSVISSSGGMTRYADSVKGRFTISRDNSKNTLYLQMNSLRAEDTAVYYCARDNGDYVGEKGFDIWGQGTMVTVSS
VL: DIQMTQSPSSLSASVGDRVTITCRASQSISNYLNWYQQKPGKAPKLLIYTASTLQSGVPSRFSGSASGTDFTLTINSLQPEDFATYSCQQSYNSPWTFGQGTKVEIKR
notes: soluble Fab (sFab); also the Fab crystallised with IGF-II; also called R0032-A11; 566A-M0064-F02
[1]
  IGF-I stimulated Ba/F3 cell proliferation, sFab at 50 µg/ml: ~30 % inhibition
[2]
  fold less affinity than DX-2647: 7 fold
[3]
  IC50, IGF-II stimulated Ba/F3 cell proliferation (MTS): 0.68 µg/mL
[4]
  IC50, IGF-IIE stimulated Ba/F3 cell proliferation (MTS): 3.12 µg/mL
[5]
  Kd: 0.45 nM
[6]
  Kd: 0.32 nM
[7]
  Kd: 1.2 nM
[8]
  Kd: 0.29 nM
[9]
  Kd: 0.14 nM
[10]
  Kd: 1.03 nM
[11]
  Kd: 1.91 nM
[12]
  Kd: 0.503 nM
[13]
  Kd: 0.352 nM

B2: DX-2647 (antibody, human IgG1, kappa, V domains shown)
VH: EVQLLESGGGLVQPGGSLRLSCAASGFTFSNYIMWWVRQAPGKGLEWVSVISSSGGGTLYADSVKGRFTISRDNSKNTLYLQMNSLRAEDTAVYYCARDNGDYVGEKGFDIWGQGTMVTVSS
VL: DIQMTQSPSSLSASVGDRVTITCRASQSISNYLNWYQQKPGKAPKLLIYTASTLQSGVPSRFSGSGSGTDFTLTISSLQPEDFATYYCQQSYNSPWTFGQGTKVEIKR
notes: human IgG1, germlined from 566A-M0064-F02, expressed in CHOK1SV cells
[14]
  Kd: 28 nM
[15]
  Kd: 0.0226 nM
  koff: 2.38e-05 s⁻¹
  kon: 1.06e+06 M⁻¹ s⁻¹
[16]
  Kd: < 0.023 nM
  koff: < 2e-05 s⁻¹
  kon: 2.06e+06 M⁻¹ s⁻¹
[17]
  Kd: 17 nM
  koff: 0.1 s⁻¹
  kon: 5.8e+06 M⁻¹ s⁻¹
[18]
  Kd: 0.023 nM
IGFBP-1
  binding result: no binding
[19]
  binding result: no binding
